Measurements: US20230058316A1, “PEGYLATED IGE-DEPENDENT HISTAMINE-RELEASING FACTOR (HRF)-BINDING PEPTIDE AND USE THEREOF” (EWHA UNIVERSITY - INDUSTRY COLLABORATION FOUNDATION, priority 2020, published 2023)
Read-outs that look alike come from different tables or passages of the source. Where no end group is shown, it is not given here.

What was measured:
[1] = tested on: IL-4; experiment: IL-4 secretion in bronchoalveolar lavage fluid, ovalbumin-induced bronchial asthma and rhinitis mouse model; type: in vivo; conditions: 1 mg/kg IP
Protocol: (§1) A bronchial asthma and rhinitis animal model was prepared by the following method. An ovalbumin solution was prepared by dissolving ovalbumin in an aluminum hydroxide solution (1 mg/ml) 28 and 14 days before the start of inducing bronchial asthma and rhinitis, and 200 μl of the solution was intraperitoneally injected into each mouse for sensitization. After 14 days of final sensitization, 20 μl of saline/PBS (normal control; NC) or 20 μl of 10 mg/mL ovalbumin solution (positive control; PC) was instilled into the nasal cavity of each lightly anesthetized mouse 4 times every other day for 8 days to induce bronchial asthma and rhinitis.
After the end of the experiment, the amount of IL-4 in the supernatant obtained by centrifuging bronchoalveolar lavage fluid was measured and quantified by enzyme immunosorbent detection using mouse IL-4 ELISA kit (Biolegend, USA).
Next, in order to confirm whether there is an effect of inhibiting IL-4 secretion even when administered in a small number of times, the dTBP2 of Preparative Example 4 and Example 3 was administered to the mouse model of Example 4-1 through intraperitoneal injection once in 4 days for a total of 2 times for 8 days inducing bronchial asthma and rhinitis. The amount of IL-4 was measured and quantified by the enzyme immunosorbent detection method in the same manner.
In addition, the dTBP2 of Preparative Example 4 and Example 3 was administered to the mouse model of Example 4-1 through intraperitoneal injection once on the 1st day of 8 days inducing bronchial asthma and rhinitis. The amount of IL-4 was measured and quantified by the enzyme immunosorbent detection method in the same manner.
The amount of IL-4 was measured and quantified by the enzyme immunosorbent detection method in the same manner.

[2] = tested on: IL-5; experiment: IL-5 secretion in bronchoalveolar lavage fluid, ovalbumin-induced bronchial asthma and rhinitis mouse model; type: in vivo; conditions: 1 mg/kg IP
Protocol: as §1
After the end of the experiment, the amount of IL-5 in the supernatant obtained by centrifuging bronchoalveolar lavage fluid was measured and quantified by enzyme immunosorbent detection using mouse IL-5 ELISA kit (Biolegend, USA).
Next, in order to confirm whether there is an effect of inhibiting IL-5 secretion even when administered in a small number of times, the dTBP2 of Preparative Example 4 and Example 3 was administered to the mouse model of Example 4-1 through intraperitoneal injection once in 4 days for a total of 2 times for 8 days inducing bronchial asthma and rhinitis. The amount of IL-5 was measured and quantified by the enzyme immunosorbent detection method in the same manner.
In addition, the dTBP2 of Preparative Example 4 and Example 3 was administered to the mouse model of Example 4-1 through intraperitoneal injection once on the 1st day of 8 days inducing bronchial asthma and rhinitis. The amount of IL-5 was measured and quantified by the enzyme immunosorbent detection method in the same manner.
The amount of IL-5 was measured and quantified by the enzyme immunosorbent detection method in the same manner.

[3] = microsomes; for Mouse (%) remaining after reaction: 0.5 h
Protocol: (§2) Upon completion of the reaction, cold acetonitrile containing internal standard was added, and then deproteinization was carried out. The reactant was centrifuged at 4° C., 4000 rpm for 15 minutes, and the supernatant was analyzed by LC-MS/MS. The system was verified with buspirone, a reference material.

[4] = tested on: ovalbumin-specific IgE; experiment: Ovalbumin-specific IgE secretion in mouse plasma, ovalbumin-induced bronchial asthma and rhinitis mouse model; type: in vivo; conditions: 1 mg/kg IP
Protocol: as §1
Ovalbumin is an allergy-causing substance mainly contained in egg whites. […] After completion of the experiment, the mouse was anesthetized by injecting a mixture of zoletil (250 mg/kg) and rompun (50 mg/kg) intraperitoneally, and the chest was opened. 0.8 mL blood was collected by puncture of the heart with a 26 gauge 1 mL syringe coated with heparin. The collected blood was centrifuged at 4° C., 3000 rpm for 10 minutes to obtain plasma components. The amount of ovalbumin-specific IgE in the blood serum obtained through the above process was measured and quantified by enzyme immunosorbent detection method using mouse OVA specific IgE kit (Biolegend, USA).
Next, in order to confirm whether there is an effect of inhibiting ovalbumin-specific IgE secretion in plasma even when administered in a small number of times, the dTBP2 of Preparative Example 4 and Example 3 was administered to the mouse model of Example 4-1 through intraperitoneal injection once in 4 days for a total of 2 times for 8 days inducing bronchial asthma and rhinitis. The amount of ovalbumin-specific IgE secretion was measured and quantified by the enzyme immunosorbent detection method in the same manner.
In addition, the dTBP2 of Preparative Example 4 and Example 3 was administered to the mouse model of Example 4-1 through intraperitoneal injection once on the 1st day of 8 days inducing bronchial asthma and rhinitis. The amount of ovalbumin-specific IgE secretion was measured and quantified by the enzyme immunosorbent detection method in the same manner.
The amount of ovalbumin-specific IgE secretion was measured and quantified by the enzyme immunosorbent detection method in the same manner.

[5] = microsomes; for Human (%) remaining after reaction: 0.5 h
Protocol: as §2

[6] = Pharmacokinetic analysis in ICR mice; type: in vivo; conditions: IV, 10 mg/kg
Protocol: The dTBP2 of Preparative Examples 4 and Example 3 was added to a solution prepared in DMSO:PEG400:DW=5:55:40, and this was administered at the concentration of 5 mL/kg. Blood samples were taken at 0.083, 0.25, 0.5, 1, 2, 4, and 8 hours post injection. The blood was centrifuged at 4° C., 3000 rpm for 10 minutes, to which cold acetonitrile containing internal standard was added in an amount 4 times the plasma component, and then deproteinization was carried out. After centrifugation again at 4° C., 13000 rpm for 10 minutes, the supernatant was collected and analyzed by Agilent 6460 LC-MS/MS. Pharmacokinetic analysis was performed with Phoenix WinNonlin (Pharsight ver 6.4, USA) using a non-compartmental analysis model.

[7] = tested on: eosinophils in bronchoalveolar lavage fluid; experiment: Eosinophil increase in bronchoalveolar lavage fluid, ovalbumin-induced bronchial asthma and rhinitis mouse model; type: in vivo; conditions: 1 mg/kg IP, 8 times daily for 8 days, FIG. 9
Protocol: as §1
After anesthetizing the mouse by injecting a mixture of zoletil (250 mg/kg) and rompun (50 mg/kg) intraperitoneally, a 20-gauge catheter was inserted into the trachea by puncturing the trachea with a knife, and 0.6 mL of PBS at a time was injected-collected three times, and the collection rate was adjusted to 80%. The collected bronchoalveolar lavage fluid was centrifuged at 4° C., 3000 rpm for 10 minutes, and the cell precipitate was resuspended in 0.1 mL of PBS. 20 μL of the suspension was analyzed for the composition of blood cells using a fully automatic hematology analyzer (HEMAVET 950 FS, Drew Scientific, Inc.).

Example 3: dTBP2 (WYVYPSM) conjugated at the N-terminal with methoxy polyethylene glycol propionaldehyde (10 kDa) ({mPEG propionaldehyde 10 kDa}-WYVYPSM)
reduction of IL-4 secretion ([1]; 8 times daily for 8 days, FIG. 14): about 60%
inhibiting IL-4 secretion ([1]; once in 4 days for a total of 2 times (FIG. 15) and once on the 1st day (FIG. 16)): effective
IL-4 secretion inhibitory effect ([1]; once on the 5th day of 8 days, FIG. 17): effectively inhibited
reduction of IL-5 secretion ([2]; 8 times daily for 8 days, FIG. 10): about 50%
inhibiting IL-5 secretion ([2]; once in 4 days for a total of 2 times (FIG. 11) and once on the 1st day (FIG. 12)): effective
IL-5 secretion inhibitory effect ([2]; once on the 5th day of 8 days, FIG. 13): effectively inhibited
Mouse (%) remaining after reaction [3]: more than 75%
Mouse (%) remaining after reaction ([3]; pH 7.4): 75.26%
half-life according to the evaluation criteria ([3]; mouse): 1 to 3 h
inhibitory ability on ovalbumin-specific IgE secretion compared with dTBP2 of Preparative Example 4 ([4]; FIGS. 23 and 24): better
inhibiting ovalbumin-specific IgE secretion ([4]; once in 4 days for a total of 2 times (FIG. 23) and once on the 1st day (FIG. 24)): effective
ovalbumin-specific IgE secretion inhibitory effect ([4]; once on the 5th day of 8 days, FIG. 25): inhibitory effect
inhibiting ovalbumin-specific IgE secretion in plasma (in words) ([4]; plasma, 8 times daily for 8 days): very effective
reduction of ovalbumin-specific IgE secretion ([4]; plasma, 8 times daily for 8 days, FIG. 22): about 50%
half-life according to the evaluation criteria ([5]; human): 1 to 3 h
Human (%) remaining after reaction [5]: more than 75%
Human (%) remaining after reaction ([5]; pH 7.4): 75.77%
AUClast [6]: 2830 ng·h/mL
AUC∞ [6]: 3150 ng·h/mL
CL (clearance from plasma) [6]: 54.8 mL/min/kg
T1/2 (half life) [6]: 3.18 h
Vss (steady-state volume of distribution) [6]: 7.37 L/kg
increase of half-life compared to the dTBP2 of Preparative Example 4 [6]: about 1.6 times
initial plasma concentration relative to the dTBP2 of Preparative Example 4 [6]: about 1000 times
stability in plasma ([6]; FIG. 26, versus Preparative Example 4): improved
reduction of increased eosinophils vs positive control [7]: about 55%
